# Test results published in US20250152746A1, “BASE EDITING OF ANGPTL3 AND METHODS OF USING SAME FOR TREATMENT OF DISEASE” (Verve Therapeutics, Inc., priority 2020, published 2025).
# In the oligonucleotide strings, read from the 5' end, every base follows the letter of its sugar. An asterisk marks phosphorothioate; unmarked linkages are phosphodiester. Other units and linkages are bracketed, terminal groups are in braces. A string of capitals states the bases alone. m = 2'-O-methyl; r = 2'-OH (RNA)
# B1: GA196: PCSK9 gRNA; protospacer GAGTGACCACCGGGAAATCG (SEQ ID NO: 190) (nucleic acid)
# guide: GAGUGACCACCGGGAAAUCGGUUUUAGAGCUAGAAAUAGCAAGUUAAAAUAAGGCUAGUCCGUUAUCAACUUGAAAAAGUGGCACCGAGUCGGUGCUUUU
# modifications: sugars from the 5' end m3 r94 m3, linkages s3 o93 s3 (s phosphorothioate, o phosphodiester), T or U not given here
# B2: GA198: PCSK9 gRNA; protospacer CCACCGGGAAATCGAGGGCA (SEQ ID NO: 192) (nucleic acid)
# guide: CCACCGGGAAAUCGAGGGCAGUUUUAGAGCUAGAAAUAGCAAGUUAAAAUAAGGCUAGUCCGUUAUCAACUUGAAAAAGUGGCACCGAGUCGGUGCUUUU
# modifications: sugars from the 5' end m3 r94 m3, linkages s3 o93 s3 (s phosphorothioate, o phosphodiester), T or U not given here
# B3: GA199: PCSK9 gRNA; protospacer GAAGCGGGTCCCGTCCTCCT (SEQ ID NO: 193) (nucleic acid)
# guide: GAAGCGGGUCCCGUCCUCCUGUUUUAGAGCUAGAAAUAGCAAGUUAAAAUAAGGCUAGUCCGUUAUCAACUUGAAAAAGUGGCACCGAGUCGGUGCUUUU
# modifications: sugars from the 5' end m3 r94 m3, linkages s3 o93 s3 (s phosphorothioate, o phosphodiester), T or U not given here
# B4: GA200: PCSK9 gRNA; protospacer CTAGGAGATACACCTCCACC (SEQ ID NO: 194) (nucleic acid)
# guide: CUAGGAGAUACACCUCCACCGUUUUAGAGCUAGAAAUAGCAAGUUAAAAUAAGGCUAGUCCGUUAUCAACUUGAAAAAGUGGCACCGAGUCGGUGCUUUU
# modifications: sugars from the 5' end m3 r94 m3, linkages s3 o93 s3 (s phosphorothioate, o phosphodiester), T or U not given here
# B5: GA205: PCSK9 gRNA; protospacer CCCTGCCCTCGATTTCCCGG (SEQ ID NO: 199) (nucleic acid)
# guide: CCCUGCCCUCGAUUUCCCGGGUUUUAGAGCUAGAAAUAGCAAGUUAAAAUAAGGCUAGUCCGUUAUCAACUUGAAAAAGUGGCACCGAGUCGGUGCUUUU
# modifications: sugars from the 5' end m3 r94 m3, linkages s3 o93 s3 (s phosphorothioate, o phosphodiester), T or U not given here
# B6: GA197: PCSK9 gRNA; protospacer AGTGACCACCGGGAAATCGA (SEQ ID NO: 191) (nucleic acid)
# guide: AGUGACCACCGGGAAAUCGAGUUUUAGAGCUAGAAAUAGCAAGUUAAAAUAAGGCUAGUCCGUUAUCAACUUGAAAAAGUGGCACCGAGUCGGUGCUUUU
# modifications: sugars from the 5' end m3 r94 m3, linkages s3 o93 s3 (s phosphorothioate, o phosphodiester), T or U not given here
# B7: GA201: PCSK9 gRNA; protospacer CAGCATACAGAGTGACCACC (SEQ ID NO: 195) (nucleic acid)
# guide: CAGCAUACAGAGUGACCACCGUUUUAGAGCUAGAAAUAGCAAGUUAAAAUAAGGCUAGUCCGUUAUCAACUUGAAAAAGUGGCACCGAGUCGGUGCUUUU
# modifications: sugars from the 5' end m3 r94 m3, linkages s3 o93 s3 (s phosphorothioate, o phosphodiester), T or U not given here
# B8: GA202: PCSK9 gRNA; protospacer AAGCGGGTCCCGTCCTCCTC (SEQ ID NO: 196) (nucleic acid)
# guide: AAGCGGGUCCCGUCCUCCUCGUUUUAGAGCUAGAAAUAGCAAGUUAAAAUAAGGCUAGUCCGUUAUCAACUUGAAAAAGUGGCACCGAGUCGGUGCUUUU
# modifications: sugars from the 5' end m3 r94 m3, linkages s3 o93 s3 (s phosphorothioate, o phosphodiester), T or U not given here
# B9: GA158: PCSK9 gRNA; protospacer GCTAGCCTTGCGTTCCGAGG (SEQ ID NO: 152) (nucleic acid)
# guide: mG*mC*mU*rArGrCrCrUrUrGrCrGrUrUrCrCrGrArGrGrGrUrUrUrUrArGrArGrCrUrArGrArArArUrArGrCrArArGrUrUrArArArArUrArArGrGrCrUrArGrUrCrCrGrUrUrArUrCrArArCrUrUrGrArArArArArGrUrGrGrCrArCrCrGrArGrUrCrGrGrUrGrCrU*mU*mU*mU
# B10: GA203: PCSK9 gRNA; protospacer TGACCCTGCCCTCGATTTCC (SEQ ID NO: 197) (nucleic acid)
# guide: UGACCCUGCCCUCGAUUUCCGUUUUAGAGCUAGAAAUAGCAAGUUAAAAUAAGGCUAGUCCGUUAUCAACUUGAAAAAGUGGCACCGAGUCGGUGCUUUU
# modifications: sugars from the 5' end m3 r94 m3, linkages s3 o93 s3 (s phosphorothioate, o phosphodiester), T or U not given here
# B11: GA204: PCSK9 gRNA; protospacer CACTCTGTATGCTGGTGTCT (SEQ ID NO: 198) (nucleic acid)
# guide: CACUCUGUAUGCUGGUGUCUGUUUUAGAGCUAGAAAUAGCAAGUUAAAAUAAGGCUAGUCCGUUAUCAACUUGAAAAAGUGGCACCGAGUCGGUGCUUUU
# modifications: sugars from the 5' end m3 r94 m3, linkages s3 o93 s3 (s phosphorothioate, o phosphodiester), T or U not given here
# System: PCSK9 gene
# Test: PCSK9 gRNA/SpCas9 editing in primary human hepatocytes (Tables 2, 4)
# Assay type: cell-based
# Details: 100 ng/RNA/mL; SpCas9 mRNA MS002 1:1 by weight
# In short: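 Primary human hepatocytes co-transfected with PCSK9 gRNA plus SpCas9 mRNA (1:1 by weight) at 2500, 500 or 100 ng RNA/mL, or 2500–250 ng/mL for tracr-modified guides. Editing at the target site read by amplicon next-generation sequencing of extracted genomic DNA.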
row,Molecule,Human Primary Hepatocyte Editing % 100 [%]
1,B1,0.75
2,B2,0.04
3,B3,1.17
4,B4,3.8
5,B5,3.74
6,B6,1.22
7,B7,3.29
8,B8,2.54
9,B9,2
10,B10,2.57
11,B11,1.27

# Same assay, conditions: 500 ng/RNA/mL; SpCas9 mRNA MS002 1:1 by weight
row,Molecule,Human Primary Hepatocyte Editing % 500 [%]
1,B1,2.9
2,B2,10.58
3,B3,6.89
4,B4,8.68
5,B5,12.42
6,B6,3.29
7,B7,12.92
8,B8,10.75
9,B9,6.55
10,B10,12.76
11,B11,8.98

# Same assay, conditions: 2500 ng/RNA/mL; SpCas9 mRNA MS002 1:1 by weight
row,Molecule,Human Primary Hepatocyte Editing % 2500 [%]
1,B1,17.19
2,B2,30.93
3,B3,29.95
4,B4,5.31
5,B5,38.04
6,B6,15.03
7,B7,31.51
8,B8,34.75
9,B9,37.94
10,B10,37.02
11,B11,24.98

# System: PCSK9 gene
# Test: PCSK9 gRNA/SpCas9 editing in primary cynomolgus hepatocytes (Tables 2, 22)
# Assay type: cell-based, cynomolgus monkey
# Details: 100 ng/RNA/mL; SpCas9 mRNA MS002 1:1 by weight
row,Molecule,Cyno Primary Hepatocyte Editing % 100 [%]
1,B1,1.09
2,B2,3.53
3,B3,3.07
4,B4,5.15
5,B5,3.01
6,B6,0.9
7,B7,4.33
8,B8,1.54
9,B9,1.04
10,B10,3.66
11,B11,0.91

# Same assay, conditions: 500 ng/RNA/mL; SpCas9 mRNA MS002 1:1 by weight
row,Molecule,Cyno Primary Hepatocyte Editing % 500 [%]
1,B1,3.4
2,B2,16.15
3,B3,15.11
4,B4,20.51
5,B5,12.04
6,B6,3.89
7,B7,14.37
8,B8,8.91
9,B9,4.42
10,B10,10.49
11,B11,5.27

# Same assay, conditions: 2500 ng/RNA/mL; SpCas9 mRNA MS002 1:1 by weight
row,Molecule,Cyno Primary Hepatocyte Editing % 2500 [%]
1,B1,27.79
2,B2,49
3,B3,45.32
4,B4,54.36
5,B5,36.43
6,B6,18.21
7,B7,44.01
8,B8,31.13
9,B9,18.27
10,B10,32.85
11,B11,19.37
